# Experimental data taken from patent publication US12540197B2, “Anti-tissue factor antibodies and antibody conjugates, compositions comprising anti-tissue factor antibodies or antibody conjugates, and methods of making and using anti-tissue factor antibodies and antibody conjugates” (SUTRO BIOPHARMA, INC., priority 2023, dated 2026).
# Tests used:
# [1] = DSF protein thermal shift assay (melting temperatures TM1/TM2); assay type: physicochemical; conditions: Table 8, humanized rabbit antibodies; TM2 = Fab domain
# Experimental: (§1) A protein thermal shift assay was carried out by mixing the protein to be assayed with an environmentally sensitive dye (SYPRO Orange, Life Technologies #S-6650) and monitoring the fluorescence of the mixture in real time as it underwent controlled thermal denaturation. Protein solutions between 0.2-2 mg/mL were mixed at a 1:1 volumetric ratio with a solution of SYPRO Orange solution diluted 250-fold in PBS+10% sucrose. 10 μL aliquots of the protein-dye mixture were dispensed in quadruplicate in a 384-well microplate (Bio-Rad #MSP-3852). The plate was sealed with an optically clear sealing film (Bio-Rad #MSB-1001) and placed in a 384-well plate real-time thermocycler (Bio-Rad CFX384 Real Time System). The protein-dye mixture was heated from 25° C. to 95° C., at increments of 0.2° C. per cycle, allowing 3 seconds of equilibration at each temperature before taking a fluorescence measurement. At the end of the experiment, the transition melting temperatures (TM1 and TM2) were determined using the Bio-Rad CFX manager software. TM1 represents the melting temperature of the Fc domain. TM2 represents the melting temperature of the Fab domain.
# as §1, with “solutions at 1” for “solutions between 0.2-2”, “a 1-1” for “a 1:1”, “sucrose. 5” for “sucrose. 10”
# human TF = biological target: T1, human TF (Homo sapiens, UniProt P13726); experiment: Biacore off-rate and kinetic binding, human TF; conditions: 25° C.; for Biacore human TF kinetics ka / Biacore human TF kinetics kd: Table 12, 1:1 Langmuir
# T1 construct: purchased Lake Pharma
# T1 sequence (P13726 33-295): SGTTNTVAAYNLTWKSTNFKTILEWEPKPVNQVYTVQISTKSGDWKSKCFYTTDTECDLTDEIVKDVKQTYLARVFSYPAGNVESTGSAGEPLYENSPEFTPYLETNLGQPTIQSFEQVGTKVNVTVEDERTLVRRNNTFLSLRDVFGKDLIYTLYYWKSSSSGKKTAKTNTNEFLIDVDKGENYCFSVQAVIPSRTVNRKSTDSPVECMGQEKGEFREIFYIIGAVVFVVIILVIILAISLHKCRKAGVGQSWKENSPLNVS
# Experimental: (§2) Anti-Fc polyclonal antibodies were immobilized onto a CM4 chip (Cytiva #BR100534) using amine coupling chemistry (Human Antibody Capture Kit, Cytiva #BR100839). The immobilization steps were carried out at a flow rate of 25 μL/min in 1×HBS-EP+buffer (Cytiva #BR100669). The sensor surfaces were activated for 7 min with a mixture of N-hydroxysuccinimide (NHS, 0.05 M) and 1-ethyl-3-(3-dimethylaminopropyl)-carbodiimide (EDC, 0.2 M). The anti-Fc polyclonal antibodies were injected over all 4 flow cells at a concentration of 25 μg/mL in 10 mM sodium acetate, pH 4.5, for 7 min. Ethanolamine (1 M, pH 8.5) was injected for 7 min to block any remaining activated groups. Approximately 6,000 response units (RU) of capture antibody was immobilized on each flow cell.
# (§3) Off-rate and kinetic binding experiments were performed at 25° C. using 1×HBS-EP+buffer. Antibodies were injected over the anti-Fc surface at a concentration of 3 μg/mL for 12 seconds at a flow rate of 10 μL/min on flow cells 2, 3 and 4, followed by a buffer wash for 30 seconds at the same flow rate. Single point off-rate analysis was carried out using an antigen concentration of 100 nM. […] After capturing ligand (antibody) on the anti-Fc surface, the analyte (human TF, Lake Pharma; cynomolgus TF, Sino Bio #90885-C08H; mouse TF, R&D Systems #3178-PA) was bound for 180 seconds, followed by a 420 second dissociation phase at a flow rate of 50 μL/min. Between each ligand capture and analyte binding cycle, regeneration was carried out using 2 injections of 10 mM glycine pH 2.0 for 30 seconds at 30 μL/min, followed by a 30 second buffer wash step.
# (§4) The data were fit with the Biacore T200 Evaluation software, using a 1:1 Langmuir binding model. KD (affinity, nM) was determined as a ratio of the kinetic rate constants calculated from the fits of the association and dissociation phases.
# (§5) Anti-Fc polyclonal antibodies were immobilized onto a CM4 chip (Cytiva #BR100534) using amine coupling chemistry (Human Antibody Capture Kit, Cytiva #BR100839). The immobilization steps were carried out at a flow rate of 25 μL/min in 1×HBS-EP+buffer (Cytiva #BR100669). The sensor surfaces were activated for 7 min with a mixture of NHS (0.05 M) and EDC (0.2 M). The Anti-Fc antibodies were injected over all 4 flow cells at a concentration of 25 ug/ml in 10 mM sodium acetate, pH 4.5, for 7 min. Ethanolamine (1 M, pH 8.5) was injected for 7 min to block any remaining activated groups. Approximately 6,000 response units (RU) of capture antibody was immobilized on each flow cell. Off-rate and kinetic binding experiments were performed at 25° C. using 1×HBS-EP+buffer. Antibodies or ADCs were injected over the anti-Fc surface at a concentration of 3 μg/mL for 12 seconds at a flow rate of 10 μL/min on flow cells 2, 3 and 4, followed by a buffer wash for 30 seconds at the same flow rate. […] After capturing ligand (antibody) on the anti-Fc surface, the analyte (human TF, Lake Pharma; cynomolgus TF, Sino Bio #90885-C08H; mouse TF, R&D Systems #3178-PA) was bound for 180 seconds, followed by a 420 second dissociation phase at a flow rate of 50 μL/min. Between each ligand capture and analyte binding cycle, regeneration was carried out using 2 injections of 10 mM Glycine pH 2.0 for 30 seconds at 30 μL/min, followed by a 30 second buffer wash step. The data was fit with the Biacore T200 Evaluation software, using a 1-1 Langmuir binding model. KD (affinity, nM) was determined as a ratio of the kinetic rate constants calculated from the fits of the association and dissociation phases.
# cynomolgus TF = experiment: Biacore off-rate and kinetic binding, cynomolgus TF; conditions: 25° C.; for Biacore cynomolgus TF kinetics ka / Biacore cynomolgus TF kinetics kd: Table 12, 1:1 Langmuir
# Sequence of cynomolgus TF (as listed by the source): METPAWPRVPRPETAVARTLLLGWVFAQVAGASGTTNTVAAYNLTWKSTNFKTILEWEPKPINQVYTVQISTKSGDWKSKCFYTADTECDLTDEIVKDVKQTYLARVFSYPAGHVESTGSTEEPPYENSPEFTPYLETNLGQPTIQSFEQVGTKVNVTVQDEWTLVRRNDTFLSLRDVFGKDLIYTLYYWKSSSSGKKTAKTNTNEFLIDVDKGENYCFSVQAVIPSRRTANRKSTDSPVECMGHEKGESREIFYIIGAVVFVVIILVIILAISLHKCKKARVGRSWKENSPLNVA
# Experimental: as §2, §3, §4, §5
# HEK293T = experiment: FACS cell-binding assay on parental HEK293T cells; conditions: Table 16, parental cells
# Excerpt: HEK293T, BxPC3 cells (TF positive) and NCI-H1703 (TF negative) cells were obtained from ATCC (American Type Culture Collection) and maintained in DMEM:F12 (1:1), high glucose (Corning) supplemented with 10% heat-inactivated fetal bovine serum (ThermoScientific), 1× Penicillin/Streptomycin (Corning) and 2 mmol glutamax (Thermo Fisher Scientific). To generate cells that stably expressing human tissue factor (HEK293T-humanTF) or cynomolgus tissue factor (HEK293T-cynoTF), HEK293T cells were transfected with plasmid vectors that contain the corresponding protein sequence and stable clones were selected with puromycin.
# For a fluorescence-activated cell sorting (FACS) cell-binding assay, cells were collected by Accutase and counted by the Vi-CELL Cell Viability Analyzersharvested and, then re-suspended in FACS buffer (DPBS buffer supplemented with 1% bovine serum albumin). A total of 200,000 cells in 100 μL were incubated on ice with 100 μL of anti-TF antibodies in each well of a 96-well plate. Cells were washed twice with ice-cold FACS buffer and then incubated on ice for 60 mins with 5 μg/mL Alexa 647-labeled donkey anti-human Fc antibody (Jackson ImmunoResearch). Unstained cells and cells stained with secondary antibody alone were used as controls. Cells were washed twice with FACS buffer and analyzed using a BD FACS Canto system. Geometric mean fluorescence intensities (MFI) were fitted using non-linear regression analysis with one site specific binding equation on GraphPad Prism (GraphPad Software; La Jolla, CA).
# [2] = Table 11, humanized rabbit antibodies, 100 nM antigen
Molecule,DSF TM2 (° C.) [1] [°C],Biacore human TF single point off-rate kinetics kd (human TF; [2]) [s⁻¹],Biacore cynomolgus TF single point off-rate kinetics kd (cynomolgus TF; [2]) [s⁻¹],Biacore human TF kinetics ka (human TF) [M⁻¹ s⁻¹],Biacore human TF kinetics kd (human TF) [s⁻¹],Biacore cynomolgus TF kinetics ka (cynomolgus TF) [M⁻¹ s⁻¹],Biacore cynomolgus TF kinetics kd (cynomolgus TF) [s⁻¹],HEK293T Bmax (MFI) (HEK293T)
"2842-B01 HC1/LC3 (antibody, conjugated to LP1 at Y180/F404) heavy: MQVQVVESGGGLVKPGGSLRLSCAASGFSISSYDMSWIRQAPGKGLEWIGIIGSNGRTYYADSVKGRFTISRNTNENTVYLQMNSLRAEDTAVYYCARGLYDGTGNIWGQGTLVTVSSASTKGPSVFPLAPSSKSTSGGTAALGCLVKDYFPEPVTVSWNSGALTSGVHTFPAVLQSSGLSLSSVVTVPSSSLGTQTYICNVNHKPSNTKVDKKVEPKSCDKTHTCPPCPAPELLGGPSVFLFPPKPKDTLMISRTPEVTCVVVDVSHEDPEVKFNWYVDGVEVHNAKTKPREEQYNSTYRVVSVLTVLHQDWLNGKEYKCKVSNKALPAPIEKTISKAKGQPREPQVYTLPPSREEMTKNQVSLTCLVKGFYPSDIAVEWESNGQPENNYKTTPPVLDSDGSFLYSKLTVDKSRWQQGNVFSCSVMHEALHNHYTQKSLSLSPGK light: MDIQMTQSPSSLSASVGDRVTITCQASQSVYGNNWLSWYQQKPGKAPKLLIYGASKLASGVPSRFSGSGSGTDFTLTISSLQPEDFATYYCQGTYYSGDWYFAFGGGTKVEIKRTVAAPSVFIFPPSDEQLKSGTASVVCLLNNFYPREAKVQWKVDNALQSGNSQESVTEQDSKDSTYSLSSTLTLSKADYEKHKVYACEVTHQGLSSPVTKSFNRGEC",87.6,0.00054,0.00117,,,,,
"48 (antibody, pAzMeF at Y180/F404; conjugate) heavy: MQVQVVESGGGLVKPGGSLRLSCAASGFSISSYDMSWIRQAPGKGLEWIGIIGSNGRTYYADSVKGRFTISRNTNENTVYLQMNSLRAEDTAVYYCARGLYDGTGNIWGQGTLVTVSSASTKGPSVFPLAPSSKSTSGGTAALGCLVKDYFPEPVTVSWNSGALTSGVHTFPAVLQSSGLSLSSVVTVPSSSLGTQTYICNVNHKPSNTKVDKKVEPKSCDKTHTCPPCPAPELLGGPSVFLFPPKPKDTLMISRTPEVTCVVVDVSHEDPEVKFNWYVDGVEVHNAKTKPREEQYNSTYRVVSVLTVLHQDWLNGKEYKCKVSNKALPAPIEKTISKAKGQPREPQVYTLPPSREEMTKNQVSLTCLVKGFYPSDIAVEWESNGQPENNYKTTPPVLDSDGSFLYSKLTVDKSRWQQGNVFSCSVMHEALHNHYTQKSLSLSPGK light: MDIQMTQSPSSLSASVGDRVTITCQASQSVYGNNWLSWYQQKPGKAPKLLIYGASKLASGVPSRFSGSGSGTDFTLTISSLQPEDFATYYCQGTYYSGDWYFAFGGGTKVEIKRTVAAPSVFIFPPSDEQLKSGTASVVCLLNNFYPREAKVQWKVDNALQSGNSQESVTEQDSKDSTYSLSSTLTLSKADYEKHKVYACEVTHQGLSSPVTKSFNRGEC",,,,71200,0.00124,121000,0.00735,1232
"47 (antibody, pAzMeF at Y180/F404; conjugate) heavy: MEVQLVESGGGLVQPGGSLRLSCAASGFSISSYDMSWVRQAPGKGLEWIGIIGSNGRTYYPDSVKGRFTISRDNSKNTVTLQMNSLRAEDTAVYYCARGLYDGTGNIWGQGTLVTVSSASTKGPSVFPLAPSSKSTSGGTAALGCLVKDYFPEPVTVSWNSGALTSGVHTFPAVLQSSGLSLSSVVTVPSSSLGTQTYICNVNHKPSNTKVDKKVEPKSCDKTHTCPPCPAPELLGGPSVFLFPPKPKDTLMISRTPEVTCVVVDVSHEDPEVKFNWYVDGVEVHNAKTKPREEQYNSTYRVVSVLTVLHQDWLNGKEYKCKVSNKALPAPIEKTISKAKGQPREPQVYTLPPSREEMTKNQVSLTCLVKGFYPSDIAVEWESNGQPENNYKTTPPVLDSDGSFLYSKLTVDKSRWQQGNVFSCSVMHEALHNHYTQKSLSLSPGK light: MDLQMTQSPSSLSASVGDRVTITCRASQSVYGNNWLSWYQQKPGKAPKLLIYGASKLASGVPSRFSGSGSGTQFTLTISSLQPEDFATYYCQGTYYSGDWYFAFGQGTKVEIKRTVAAPSVFIFPPSDEQLKSGTASVVCLLNNFYPREAKVQWKVDNALQSGNSQESVTEQDSKDSTYSLSSTLTLSKADYEKHKVYACEVTHQGLSSPVTKSFNRGEC",,,,54000,0.000422,82700,0.00166,1285
